Columns and labels:
[1] = molecular target: Rck G118D mutant (Salmonella enterica serovar Typhimurium) (UniProt Q04817); assay: flow cytometry on cells; data not shown: FACS analysis with purified C4BP on the Rck G118D mutant against wt Rck
[2] = molecular target: Rck, outer membrane protein of Salmonella enterica serovar Typhimurium, expressed on E. coli BL21(DE3) from plasmid pRck (Salmonella enterica serovar Typhimurium strain SL1344) (UniProt Q04817); assay: flow cytometry on cells; E. coli BL21(DE3) pRck with wt C4BP or the CCP7 or CCP8 deletion mutant (10 µg/ml); detected with monoclonal anti-C4BP MK104, specific for CCP1 of the α-chain; MFI of wt C4BP set to 100%
[3] = molecular target: Rck, outer membrane protein of Salmonella enterica serovar Typhimurium, expressed on E. coli BL21(DE3) from plasmid pRck (Salmonella enterica serovar Typhimurium strain SL1344) (UniProt Q04817); assay: flow cytometry on cells; E. coli BL21(DE3) pRck in DPBS with purified C4BP (increasing amounts) or with wt C4BP or recombinant CCP deletion mutants at 10 µg/ml, 37°C; detected with sheep polyclonal anti-human C4BP; MFI of wt C4BP set to 100%

Substance	fold less C4BP bound than by wt Rck [1] [fold]	percent reduction in binding against wt C4BP [2] [%]	percent reduction in binding against wt C4BP [3] [%]
Human C4b-binding protein (C4BP) (from UniProt P04003 49-597; P20851 18-252) (complex)	24	–	–
Recombinant human C4BP mutant with CCP7 of the α-chain deleted (from UniProt P04003 49-597) (complex)	–	84	70
Recombinant human C4BP mutant with CCP8 of the α-chain deleted (from UniProt P04003 49-597) (complex)	–	78	60
